# Test results as given in paper PMC9428257.
# B1: yeast-displayed wild-type sBCMA (human BCMA extracellular domain, Met1-Ala54) [human] / human APRIL (a proliferation-inducing ligand) [human] (parent)
# chain 1: MLQMAGQCSQNEYFDSLLHACIPCQLRCSSNTPPLTCQRYCNASVTNSVKGTNA
# chain 2: AVLTQKQKKQHSVLHLVPINATSKDDSDVTEVMWQPALRRGRGLQAQGYGVRIQDAGVYLLYSQVLFQDVTFTMGQVVSREGQGRQETLFRCIRSMPSHPDRAYNSCYSAGVFHLHQGDILSVIIPRARAKLNLSPHGTFLGFVKL
# Variants of: B1
# Assay: flow cytometry binding curve of yeast-displayed sBCMA
# Conditions: with human APRIL (a proliferation-inducing ligand) [human]
Kd [nM],screen value [A.U.],Variant
0.008,,chain 1 MLQMAGQCSQNEYFDGLLYACIPCQLRCSSNTPPLACQRYCNASVTNSVKGTDA [chain 1 S16G H19Y T36A N53D]
0.018,5860,chain 1 MLQMAGQCSQNEYFDGLLYACIPCQLRCSSNTPPLACQRYCNASVTNSVKGTNA [chain 1 S16G H19Y T36A]

# Variants of: B1
# Assay: flow cytometry binding of yeast-displayed sBCMA
# Conditions: with human APRIL (a proliferation-inducing ligand) [human]; parent: 262
row,screen value,Variant
1,102,chain 1 MLQMAGQCSQNEYFDGLLHACIPCQLRCSSNTPPLACQRYCNASVTNSVKGTNA [chain 1 S16G T36A]
2,325,chain 1 MLQMAGQCSQNEYFDGLLYACIPCQLRCSSNTPPLACQRYCNASVTNSVKGTNA [chain 1 S16G H19Y T36A]
3,1310,chain 1 MLQMAGQCPQDEYFDGLLYACIPCQLRCSSNTPPLACQRYCNASVTSSVKGTDA [chain 1 S9P N11D S16G H19Y T36A N47S N53D]
